The text below walks through data of patent US20070224188A1.

For the test, the target named is biotin-labeled soluble FcRn. Kind of test: FcRn ELISA pH 6.0. On the technique in general: ELISA stands for enzyme-linked immunosorbent assay.

Sequence of anti-CD20 antibody, IgG1 Fc region, wild type (a, z) (heavy, part): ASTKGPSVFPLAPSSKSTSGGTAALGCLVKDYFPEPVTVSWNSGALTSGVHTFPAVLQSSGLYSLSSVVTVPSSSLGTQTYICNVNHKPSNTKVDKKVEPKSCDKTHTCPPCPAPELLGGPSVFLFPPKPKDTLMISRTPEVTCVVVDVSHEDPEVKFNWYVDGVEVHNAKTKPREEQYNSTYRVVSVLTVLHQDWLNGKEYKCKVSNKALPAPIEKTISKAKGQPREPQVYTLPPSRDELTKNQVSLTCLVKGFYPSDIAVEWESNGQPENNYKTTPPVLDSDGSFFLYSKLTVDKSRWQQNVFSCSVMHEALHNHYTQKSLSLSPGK

anti-CD20 IgG1 T256W (antibody) gave a FcRn pH6.0 (% of wild type) of 14.

anti-CD20 IgG1 T256Y (antibody) gave a FcRn pH6.0 (% of wild type) of 68.

Take anti-CD20 IgG1 T260S (antibody): the FcRn pH6.0 (% of wild type) amounted to 124.

On to anti-CD20 IgG1 T307A (antibody), for which the FcRn pH6.0 (% of wild type) was 233.

The substance anti-CD20 IgG1 T307E (antibody) gave a FcRn pH6.0 (% of wild type) of 492.

Regarding anti-CD20 IgG1 T307M (antibody), the FcRn pH6.0 (% of wild type) was 302.

For the substance anti-CD20 IgG1 V262L (antibody), the FcRn pH6.0 (% of wild type) came out at 525.

anti-CD20 IgG1 V264S (antibody): the FcRn pH6.0 (% of wild type) worked out at 78.

With anti-CD20 IgG1 V279A (antibody), the FcRn pH6.0 (% of wild type) came to 214.

Substance anti-CD20 IgG1 V279D (antibody) gave a FcRn pH6.0 (% of wild type) of 367.

In turn, anti-CD20 IgG1 V279F (antibody) registered a FcRn pH6.0 (% of wild type) of 113.

In the case of anti-CD20 IgG1 V279G (antibody), the FcRn pH6.0 (% of wild type) was 256.

Consider anti-CD20 IgG1 V279H (antibody), for which the FcRn pH6.0 (% of wild type) came to 173.

anti-CD20 IgG1 V279I (antibody) gave a FcRn pH6.0 (% of wild type) of 83.

For anti-CD20 IgG1 V279K (antibody), the FcRn pH6.0 (% of wild type) was determined as 79.

The substance anti-CD20 IgG1 V279L (antibody) gave a FcRn pH6.0 (% of wild type) of 78.

anti-CD20 IgG1 V279M (antibody) came in with a FcRn pH6.0 (% of wild type) of 122.

As to anti-CD20 IgG1 V279N (antibody), the FcRn pH6.0 (% of wild type) worked out at 204.

anti-CD20 IgG1 V279Q (antibody) came in with a FcRn pH6.0 (% of wild type) of 181.

anti-CD20 IgG1 V279R (antibody) registered a FcRn pH6.0 (% of wild type) of 130.

anti-CD20 IgG1 V279S (antibody) displayed a FcRn pH6.0 (% of wild type) of 242.

anti-CD20 IgG1 V279T (antibody) gave a FcRn pH6.0 (% of wild type) of 265.

Substance anti-CD20 IgG1 V279W (antibody) came in with a FcRn pH6.0 (% of wild type) of 162.

The substance anti-CD20 IgG1 V279Y (antibody) returned a FcRn pH6.0 (% of wild type) of 139.

As for anti-CD20 IgG1 V379N (antibody), the FcRn pH6.0 (% of wild type) is 74.

In turn, anti-CD20 IgG1 V379Q (antibody) registered a FcRn pH6.0 (% of wild type) of 85.

anti-CD20 IgG1 V379S (antibody) had a FcRn pH6.0 (% of wild type) of 86.

The substance anti-CD20 IgG1 V379T (antibody) displayed a FcRn pH6.0 (% of wild type) of 109.

anti-CD20 IgG1 V427N (antibody) had a FcRn pH6.0 (% of wild type) of 192.

For anti-CD20 IgG1 Y373A (antibody), the FcRn pH6.0 (% of wild type) was found to be 33.

anti-CD20 IgG1 Y373D (antibody) returned a FcRn pH6.0 (% of wild type) of 74.

anti-CD20 IgG1 Y373E (antibody) returned a FcRn pH6.0 (% of wild type) of 106.

anti-CD20 IgG1 Y373F (antibody) yielded a FcRn pH6.0 (% of wild type) of 110.

Turning to anti-CD20 IgG1 Y373G (antibody), the FcRn pH6.0 (% of wild type) worked out at 38.

Take anti-CD20 IgG1 Y373H (antibody): the FcRn pH6.0 (% of wild type) amounted to 100.

As to anti-CD20 IgG1 Y373I (antibody), the FcRn pH6.0 (% of wild type) is 73.

anti-CD20 IgG1 Y373K (antibody) displayed a FcRn pH6.0 (% of wild type) of 70.

Substance anti-CD20 IgG1 Y373L (antibody) gave a FcRn pH6.0 (% of wild type) of 66.

For anti-CD20 IgG1 Y373M (antibody), the FcRn pH6.0 (% of wild type) was determined as 53.

anti-CD20 IgG1 Y373N (antibody) displayed a FcRn pH6.0 (% of wild type) of 61.

Take anti-CD20 IgG1 Y373Q (antibody): the FcRn pH6.0 (% of wild type) worked out at 55.

On to anti-CD20 IgG1 Y373R (antibody), for which the FcRn pH6.0 (% of wild type) worked out at 107.

For the substance anti-CD20 IgG1 Y373S (antibody), the FcRn pH6.0 (% of wild type) was determined as 74.

anti-CD20 IgG1 Y373T (antibody) displayed a FcRn pH6.0 (% of wild type) of 82.

Take anti-CD20 IgG1 Y373V (antibody): the FcRn pH6.0 (% of wild type) was 69.

In turn, anti-CD20 IgG1 Y373W (antibody) returned a FcRn pH6.0 (% of wild type) of 75.

Take anti-CD20 IgG1 Y436I (antibody): the FcRn pH6.0 (% of wild type) was 194.

anti-CD20 IgG1 Y436L (antibody) displayed a FcRn pH6.0 (% of wild type) of 172.

anti-CD20 IgG1 Y436T (antibody) showed a FcRn pH6.0 (% of wild type) of 115.

Consider “anti-CD20 antibody, IgG1 Fc region, wild type (a, z)”, for which the FcRn6.0 (% of wild type) was 100 and the FcRn pH6.0 (% of wild type) was 100.
